Consider one substance from patent US20090075925A1, “Methods and Compositions Related to APOBEC-1 Expression” (priority 2006, published 2009).

The target in this experiment is rat APOBEC-1 (endogenous, rat liver nuclear extract and McArdle cells) (rat). The experiment in a line: cell-based or functional assay.

Take “rat ACF64 S154D (from UniProt Q923K9 1-586)”: the apoB mRNA editing in stable McArdle cell lines was 67%.
